In patent publication US20170342167A1 (Hoffmann-La Roche, published 2017):

Target: T1, human neonatal Fc-receptor (FcRn) (human, UniProt P55899 24-297; P61769 21-119, limits assumed, biotinylated (site not stated), coupled to streptavidin sepharose)
T1 construct: also called FcRn receptor
Test: FcRn affinity chromatography, anti-HER2 antibody

| Molecule | retention time |
| --- | --- |
| anti-HER2 antibody symmetrically modified with R255D | 41.4 min |
| anti-HER2 antibody symmetrically modified with E430H | 46.4 min |
| anti-HER2 antibody symmetrically modified with Q311H | 46.3 min |
| anti-HER2 antibody symmetrically modified with K317H | 46.3 min |

Other lines, results leading:

| retention time | Molecule |
| --- | --- |
| 46.2 min | anti-HER2 antibody symmetrically modified with K290H |
| 46.3 min | anti-HER2 antibody, wild-type |
| 45.5 min | anti-HER2 antibody symmetrically modified with L309H |
| 45.6 min | anti-HER2 antibody symmetrically modified with E258H |
| 46 min | anti-HER2 antibody symmetrically modified with T256H |
| 52 min | anti-HER2 antibody symmetrically modified with N434H |
| 45.2 min | anti-HER2 antibody symmetrically modified with K288E |

Target: T1, human neonatal Fc-receptor (FcRn)
Test: FcRn affinity chromatography

| Molecule | binding result |
| --- | --- |
| IgG1 Fc-region with L234A/L235A/P329G and H310A/H433A/Y436A in both Fc-region polypeptides (other, As m2; Positions are EU numbers, not positions on the entry; also called HHY-AAA mutation) DKTHTCPPCPAPEAAGGPSVFLFPPKPKDTLMISRTPEVTCVVVDVSHEDPEVKFNWYVDGVEVHNAKTKPREEQYNSTYRVVSVLTVLAQDWLNGKEYKCKVSNKALGAPIEKTISKAKGQPREPQVYTLPPSRDELTKNQVSLTCLVKGFYPSDIAVEWESNGQPENNYKTTPPVLDSDGSFFLYSKLTVDKSRWQQGNVFSCSVMHEALANHATQKSLSLSPGK | no binding (tested: retention time below 3 minutes) |
| IgG1 Fc-region with L234A/L235A/P329G and H310A/H435A in both Fc-region polypeptides (other, As m2; Positions are EU numbers, not positions on the entry) DKTHTCPPCPAPEAAGGPSVFLFPPKPKDTLMISRTPEVTCVVVDVSHEDPEVKFNWYVDGVEVHNAKTKPREEQYNSTYRVVSVLTVLAQDWLNGKEYKCKVSNKALGAPIEKTISKAKGQPREPQVYTLPPSRDELTKNQVSLTCLVKGFYPSDIAVEWESNGQPENNYKTTPPVLDSDGSFFLYSKLTVDKSRWQQGNVFSCSVMHEALHNAYTQKSLSLSPGK | no binding (tested: retention time below 3 minutes) |
| IgG1 Fc-region with L234A/L235A/P329G and H310A/Y436A in both Fc-region polypeptides (other, As m2; Positions are EU numbers, not positions on the entry) DKTHTCPPCPAPEAAGGPSVFLFPPKPKDTLMISRTPEVTCVVVDVSHEDPEVKFNWYVDGVEVHNAKTKPREEQYNSTYRVVSVLTVLAQDWLNGKEYKCKVSNKALGAPIEKTISKAKGQPREPQVYTLPPSRDELTKNQVSLTCLVKGFYPSDIAVEWESNGQPENNYKTTPPVLDSDGSFFLYSKLTVDKSRWQQGNVFSCSVMHEALHNHATQKSLSLSPGK | no binding (tested: retention time below 3 minutes) |
| IgG1 Fc-region with L234A/L235A/P329G and I253A/H310A in both Fc-region polypeptides (other, As m2; Positions are EU numbers, not positions on the entry) DKTHTCPPCPAPEAAGGPSVFLFPPKPKDTLMASRTPEVTCVVVDVSHEDPEVKFNWYVDGVEVHNAKTKPREEQYNSTYRVVSVLTVLAQDWLNGKEYKCKVSNKALGAPIEKTISKAKGQPREPQVYTLPPSRDELTKNQVSLTCLVKGFYPSDIAVEWESNGQPENNYKTTPPVLDSDGSFFLYSKLTVDKSRWQQGNVFSCSVMHEALHNHYTQKSLSLSPGK | no binding (tested: retention time below 3 minutes) |
| IgG1 Fc-region with L234A/L235A/P329G and I253A/H310A/H435A in both Fc-region polypeptides (other, As m2; Positions are EU numbers, not positions on the entry; also called IHH-AAA mutation) DKTHTCPPCPAPEAAGGPSVFLFPPKPKDTLMASRTPEVTCVVVDVSHEDPEVKFNWYVDGVEVHNAKTKPREEQYNSTYRVVSVLTVLAQDWLNGKEYKCKVSNKALGAPIEKTISKAKGQPREPQVYTLPPSRDELTKNQVSLTCLVKGFYPSDIAVEWESNGQPENNYKTTPPVLDSDGSFFLYSKLTVDKSRWQQGNVFSCSVMHEALHNAYTQKSLSLSPGK | no binding (tested: retention time below 3 minutes) |
| IgG1 Fc-region with L234A/L235A/P329G and I253A/H435A in both Fc-region polypeptides (other, As m2; Positions are EU numbers, not positions on the entry) DKTHTCPPCPAPEAAGGPSVFLFPPKPKDTLMASRTPEVTCVVVDVSHEDPEVKFNWYVDGVEVHNAKTKPREEQYNSTYRVVSVLTVLHQDWLNGKEYKCKVSNKALGAPIEKTISKAKGQPREPQVYTLPPSRDELTKNQVSLTCLVKGFYPSDIAVEWESNGQPENNYKTTPPVLDSDGSFFLYSKLTVDKSRWQQGNVFSCSVMHEALHNAYTQKSLSLSPGK | no binding (tested: retention time below 3 minutes) |
